How the values were obtained:
[1] = target: T1, Recombinant Human DLL4 (R&D Systems Cat#1506-D4/CF) (human, UniProt Q9NR61 27-524); test: ECL (MSD) binding assay, Fab on immobilized recombinant human DLL4
T1 construct: also called rHuman DLL4; delta-like protein 4

[2] = target: T1, Recombinant Human DLL4 (R&D Systems …); test: ECL (MSD) multispot binding assay, Fab on immobilized recombinant human DLL4
[3] = target: T2, Recombinant Human DLL4 (delta-like protein 4) (human, UniProt Q9NR61 27-524); test: ELISA, DLL4 coated on plate; Fab at 1.23 (head prints µM, text says nM)
T2 construct: Bought recombinant protein (R&D Systems Cat#1506-D4/CF); also called rHuman DLL4; Delta-like 4

[4] = target: T2, Recombinant Human DLL4 (delta-like …); test: ELISA, DLL4 coated on plate; Fab at 0.41 (head prints µM, text says nM)
[5] = target: T2, Recombinant Human DLL4 (delta-like …); test: ELISA, DLL4 coated on plate; Fab at 0.05 (head prints µM, text says nM)
[6] = target: T2, Recombinant Human DLL4 (delta-like …); test: ELISA, DLL4 coated on plate; Fab at 3.70 (head prints µM, text says nM)
[7] = target: T2, Recombinant Human DLL4 (delta-like …); test: ELISA, DLL4 coated on plate; Fab at 0.14 (head prints µM, text says nM)
[8] = target: T2, Recombinant Human DLL4 (delta-like …); test: ELISA, DLL4 coated on plate; Fab at 11.11 (head prints µM, text says nM)
[9] = target: T2, Recombinant Human DLL4 (delta-like …); test: ELISA, DLL4 coated on plate; Fab at 100 (head prints µM, text says nM)
[10] = target: T2, Recombinant Human DLL4 (delta-like …); test: ELISA, DLL4 coated on plate; Fab at 33.33 (head prints µM, text says nM)
[11] = target: T3, Recombinant Human DLL4 (R&D Systems Cat#1506-D4/CF) (human, UniProt Q9NR61 27-524); test: 96-well plate ECL, DLL4 coated
T3 construct: bought recombinant protein; also called rHuman DLL4; delta-like protein 4

Row | ECL signal [1] | ECL Signal/Blank [2] | ELISA signal [3] | ELISA signal [4] | ELISA signal [5] | ELISA signal [6] | ELISA signal [7] | ELISA signal [8] | ELISA signal [9] | ELISA signal [10] | fold signal/noise ratio against the parent Fab [11] | Binder
1 | 588 | 49.2 |  |  |  |  |  |  |  |  |  | Fab VH5-51_IGHD5-18*01>3_IGHJ4*01 G100K/G104T (KT) & V3-4_IGLJ1*01 (Fab, V domains shown, Tested as Fab; Fabs were expressed in E. coli from plasmid A (heavy chain CH1, His6 and Flag tags) and plasmid E (lambda CL); also called H:KT & L:wt) VH: EVQLVQSGAEVKKPGESLKISCKGSGYSFTSYWIGWVRQMPGKGLEWMGIIYPGDSDTRYSPSFQGQVTISADKSISTAYLQWSSLKASDTAMYYCARRKYSYTYDYFDYWGQGTLVTVSS VL: QTVVTQEPSFSVSPGGTVTLTCGLSSGSVSTSYYPSWYQQTPGQAPRTLIYSTNTRSSGVPDRFSGSILGNKAALTITGAQADDESDYYCVLYMGSGISYVFGTGTKVTVL
2 |  |  | 0.03 | 0.01 | 0.02 | 0.06 | 0.02 | 0.17 | 0.69 | 0.35 |  | Fab VH5-51_IGHD5-18*01>3_IGHJ4*01 G100K/G104T G24T/S28R/G35V (H:KT TRV) & V3-4_IGLJ1*01 V91L/S96P S52G (Fab, V domains shown, Tested as a Fab made in E. coli; also called H:KT TRV & L:LP S52G) VH: EVQLVQSGAEVKKPGESLKISCKTSGYRFTSYWIVWVRQMPGKGLEWMGIIYPGDSDTRYSPSFQGQVTISADKSISTAYLQWSSLKASDTAMYYCARRKYSYTYDYFDYWGQGTLVTVSS VL: QTVVTQEPSFSVSPGGTVTLTCGLSSGSVSTSYYPSWYQQTPGQAPRTLIYGTNTRSSGVPDRFSGSILGNKAALTITGAQADDESDYYCLLYMGPGISYVFGTGTKVTVL
3 |  |  | 0.01 | 0.01 | 0.01 | 0.03 | 0 | 0.04 | 0.16 | 0.08 |  | Fab VH5-51_IGHD5-18*01>3_IGHJ4*01 G100K/G104T G24T/S28R/G35V (H:KT TRV) & V3-4_IGLJ1*01 (Fab, V domains shown, Tested as a Fab made in E. coli; also called H:KT TRV & L:wt; Wildtype (light chain)) VH: EVQLVQSGAEVKKPGESLKISCKTSGYRFTSYWIVWVRQMPGKGLEWMGIIYPGDSDTRYSPSFQGQVTISADKSISTAYLQWSSLKASDTAMYYCARRKYSYTYDYFDYWGQGTLVTVSS VL: QTVVTQEPSFSVSPGGTVTLTCGLSSGSVSTSYYPSWYQQTPGQAPRTLIYSTNTRSSGVPDRFSGSILGNKAALTITGAQADDESDYYCVLYMGSGISYVFGTGTKVTVL
4 |  |  |  |  |  |  |  |  |  |  | ~3 fold | Fab VH1-46_IGHD6-6*01_IGHJ1*01 S102A & L6_IGKJ1*01 (Fab, V domains shown, Fab) VH: QVQLVQSGAEVKKPGASVKVSCKASGYTFTSYYMHWVRQAPGQGLEWMGIINPSGGSTSYAQKFQGRVTMTRDTSTSTVYMELSSLRSEDTAVYYCAREEYASSSAEYFQHWGQGTLVTVSS VL: not shown

Continued, binder first:

Row | Binder | ECL signal [1] | ECL Signal/Blank [2] | ELISA signal [3] | ELISA signal [4] | ELISA signal [5] | ELISA signal [6] | ELISA signal [7] | ELISA signal [8] | ELISA signal [9] | ELISA signal [10] | fold signal/noise ratio against the parent Fab [11]
5 | Fab VH5-51_IGHD5-18*01>3_IGHJ4*01 G100K/G104T G24T/S28R/G35V (H:KT TRV) & V3-4_IGLJ1*01 V91L/S96P (L:LP) (Fab, V domains shown, Tested as a Fab made in E. coli; also called H:KT TRV & L:LP) VH: EVQLVQSGAEVKKPGESLKISCKTSGYRFTSYWIVWVRQMPGKGLEWMGIIYPGDSDTRYSPSFQGQVTISADKSISTAYLQWSSLKASDTAMYYCARRKYSYTYDYFDYWGQGTLVTVSS VL: QTVVTQEPSFSVSPGGTVTLTCGLSSGSVSTSYYPSWYQQTPGQAPRTLIYSTNTRSSGVPDRFSGSILGNKAALTITGAQADDESDYYCLLYMGPGISYVFGTGTKVTVL |  |  | 0.03 | 0.02 | 0.02 | 0.03 | 0.03 | 0.07 | 0.34 | 0.19 | 
6 | Fab VH5-51_IGHD5-18*01>3_IGHJ4*01 G100K/G104T G24T/S28R/G35V (H:KT TRV) & V3-4_IGLJ1*01 V91L/S96P S52M (Fab, V domains shown, Tested as a Fab made in E. coli; also called H:KT TRV & L:LP S52M) VH: EVQLVQSGAEVKKPGESLKISCKTSGYRFTSYWIVWVRQMPGKGLEWMGIIYPGDSDTRYSPSFQGQVTISADKSISTAYLQWSSLKASDTAMYYCARRKYSYTYDYFDYWGQGTLVTVSS VL: QTVVTQEPSFSVSPGGTVTLTCGLSSGSVSTSYYPSWYQQTPGQAPRTLIYMTNTRSSGVPDRFSGSILGNKAALTITGAQADDESDYYCLLYMGPGISYVFGTGTKVTVL |  |  | 0.03 | 0.03 | 0.02 | 0.03 | 0.02 | 0.06 | 0.24 | 0.12 | 

From US20120316071A1 (published 2012)
